From PMC5531659, “Small molecule perturbation of the CAND1-Cullin1-ubiquitin cycle stabilizes p53 and triggers Epstein-Barr virus reactivation” (PLoS Pathogens, 2017) come the findings set out here.

The target of the assay is T1, Cullin 1 (human (endogenous in Mutu I and 293T), UniProt Q13616 1-776).
T1 construct: Cullin 1, human, endogenous protein of Mutu I and 293T cells; Neddylated and deneddylated forms are seen on blots; also called Cul1; Cul 1; source: endogenous, Mutu I lysate; endogenous, 293T lysate
The assay is described as follows: co-IP; Mutu I total cell lysates (cells treated with DMSO or C60 for 48 hrs); IP with antibody to Cullin 1, CAND1 or IgG on protein A beads in SDS-free lysis buffer (50 mM Tris-HCl pH 7.6, 120 mM NaCl, 0.1% NP40, 1 mM EDTA), overnight 4°C; Western blot for Cullin 1 or CAND1. The settings on record: partners not purified.

T1 sequence (Q13616 whole entry): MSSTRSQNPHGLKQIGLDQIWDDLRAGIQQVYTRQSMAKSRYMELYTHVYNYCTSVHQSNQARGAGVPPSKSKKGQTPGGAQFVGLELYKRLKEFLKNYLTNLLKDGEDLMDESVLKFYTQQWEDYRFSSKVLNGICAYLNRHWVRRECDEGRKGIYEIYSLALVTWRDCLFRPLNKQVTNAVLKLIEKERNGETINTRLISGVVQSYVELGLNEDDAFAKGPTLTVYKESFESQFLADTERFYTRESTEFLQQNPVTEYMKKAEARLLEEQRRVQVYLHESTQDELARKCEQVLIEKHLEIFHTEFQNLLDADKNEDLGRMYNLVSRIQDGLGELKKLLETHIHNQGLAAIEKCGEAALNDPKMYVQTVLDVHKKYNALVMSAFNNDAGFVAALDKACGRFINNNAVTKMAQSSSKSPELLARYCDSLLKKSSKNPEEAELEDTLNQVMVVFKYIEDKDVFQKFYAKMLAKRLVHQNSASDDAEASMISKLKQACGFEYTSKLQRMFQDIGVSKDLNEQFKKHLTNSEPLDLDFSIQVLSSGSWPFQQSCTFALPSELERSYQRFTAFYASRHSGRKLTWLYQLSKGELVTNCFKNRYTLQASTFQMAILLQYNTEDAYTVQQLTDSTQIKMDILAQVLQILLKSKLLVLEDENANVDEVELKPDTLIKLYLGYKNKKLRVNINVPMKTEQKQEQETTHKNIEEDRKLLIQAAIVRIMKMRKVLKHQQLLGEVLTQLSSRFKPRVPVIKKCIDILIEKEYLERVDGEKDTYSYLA

B1: Cullin-associated and neddylation-dissociated 1 (CAND1) (natural protein, human (endogenous in Mutu I and 293T), UniProt Q86VP6 1-1230, looked up)
chain: MASASYHISNLLEKMTSSDKDFRFMATNDLMTELQKDSIKLDDDSERKVVKMILKLLEDKNGEVQNLAVKCLGPLVSKVKEYQVETIVDTLCTNMLSDKEQLRDISSIGLKTVIGELPPASSGSALAANVCKKITGRLTSAIAKQEDVSVQLEALDIMADMLSRQGGLLVNFHPSILTCLLPQLTSPRLAVRKRTIIALGHLVMSCGNIVFVDLIEHLLSELSKNDSMSTTRTYIQCIAAISRQAGHRIGEYLEKIIPLVVKFCNVDDDELREYCIQAFESFVRRCPKEVYPHVSTIINICLKYLTYDPNYNYDDEDEDENAMDADGGDDDDQGSDDEYSDDDDMSWKVRRAAAKCLDAVVSTRHEMLPEFYKTVSPALISRFKEREENVKADVFHAYLSLLKQTRPVQSWLCDPDAMEQGETPLTMLQSQVPNIVKALHKQMKEKSVKTRQCCFNMLTELVNVLPGALTQHIPVLVPGIIFSLNDKSSSSNLKIDALSCLYVILCNHSPQVFHPHVQALVPPVVACVGDPFYKITSEALLVTQQLVKVIRPLDQPSSFDATPYIKDLFTCTIKRLKAADIDQEVKERAISCMGQIICNLGDNLGSDLPNTLQIFLERLKNEITRLTTVKALTLIAGSPLKIDLRPVLGEGVPILASFLRKNQRALKLGTLSALDILIKNYSDSLTAAMIDAVLDELPPLISESDMHVSQMAISFLTTLAKVYPSSLSKISGSILNELIGLVRSPLLQGGALSAMLDFFQALVVTGTNNLGYMDLLRMLTGPVYSQSTALTHKQSYYSIAKCVAALTRACPKEGPAVVGQFIQDVKNSRSTDSIRLLALLSLGEVGHHIDLSGQLELKSVILEAFSSPSEEVKSAASYALGSISVGNLPEYLPFVLQEITSQPKRQYLLLHSLKEIISSASVVGLKPYVENIWALLLKHCECAEEGTRNVVAECLGKLTLIDPETLLPRLKGYLISGSSYARSSVVTAVKFTISDHPQPIDPLLKNCIGDFLKTLEDPDLNVRRVALVTFNSAAHNKPSLIRDLLDTVLPHLYNETKVRKELIREVEMGPFKHTVDDGLDIRKAAFECMYTLLDSCLDRLDIFEFLNHVEDGLKDHYDIKMLTFLMLVRLSTLCPSAVLQRLDRLVEPLRATCTTKVKANSVKQEFEKQDELKRSAMRAVAALLTIPEAEKSPLMSEFQSQISSNPELAAIFESIQKDSSSTNLESMDTS
notes: CAND1, human, endogenous protein of Mutu I and 293T cells; also called TIP120A; source: endogenous, Mutu I lysate; endogenous, 293T lysate
For the molecule B1, the “fold decrease of the association in C60-treated against DMSO-treated cells” value is roughly 5 fold.
